Laboratory results reported in US20220017583A1.

Biological target: amyloid β (1-28) (UniProt P05067)
Assay: trapping on beads in buffer, eluate by MALDI-TOF MS; ratio of detection limits

UniProt P05067, sequence (P05067 672-699 limits assumed): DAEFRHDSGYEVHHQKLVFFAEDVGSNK

fold sensitivity against the IgG-protein G beads of each kind: 5 times
Substance: 6E10 F(ab′)-PEG24 beads (Fab)
